# Data: IntAct's records for PubMed 17589525
# B1: Splicing factor 45 (Homo sapiens), Q96I25 (parent)
# chain: MSLYDDLGVETSDSKTEGWSKNFKLLQSQLQVKKAALTQAKSQRTKQSTVLAPVIDLKRGGSSDDRQIVDTPPHVAAGLKDPVPSGFSAGEVLIPLADEYDPMFPNDYEKVVKRQREERQRQRELERQKEIEEREKRRKDRHEASGFARRPDPDSDEDEDYERERRKRSMGGAAIAPPTSLVEKDKELPRDFPYEEDSRPRSQSSKAAIPPPVYEEQDRPRSPTGPSNSFLANMGGTVAHKIMQKYGFREGQGLGKHEQGLSTALSVEKTSKRGGKIIVGDATEKDASKKSDSNPLTEILKCPTKVVLLRNMVGAGEVDEDLEVETKEECEKYGKVGKCVIFEIPGAPDDEAVRIFLEFERVESAIKAVVDLNGRYFGGRVVKACFYNLDKFRVLDLAEQV
# B2: Splicing factor 45 (Homo sapiens), Q96I25 (parent)
# chain: B1 chain
# partner: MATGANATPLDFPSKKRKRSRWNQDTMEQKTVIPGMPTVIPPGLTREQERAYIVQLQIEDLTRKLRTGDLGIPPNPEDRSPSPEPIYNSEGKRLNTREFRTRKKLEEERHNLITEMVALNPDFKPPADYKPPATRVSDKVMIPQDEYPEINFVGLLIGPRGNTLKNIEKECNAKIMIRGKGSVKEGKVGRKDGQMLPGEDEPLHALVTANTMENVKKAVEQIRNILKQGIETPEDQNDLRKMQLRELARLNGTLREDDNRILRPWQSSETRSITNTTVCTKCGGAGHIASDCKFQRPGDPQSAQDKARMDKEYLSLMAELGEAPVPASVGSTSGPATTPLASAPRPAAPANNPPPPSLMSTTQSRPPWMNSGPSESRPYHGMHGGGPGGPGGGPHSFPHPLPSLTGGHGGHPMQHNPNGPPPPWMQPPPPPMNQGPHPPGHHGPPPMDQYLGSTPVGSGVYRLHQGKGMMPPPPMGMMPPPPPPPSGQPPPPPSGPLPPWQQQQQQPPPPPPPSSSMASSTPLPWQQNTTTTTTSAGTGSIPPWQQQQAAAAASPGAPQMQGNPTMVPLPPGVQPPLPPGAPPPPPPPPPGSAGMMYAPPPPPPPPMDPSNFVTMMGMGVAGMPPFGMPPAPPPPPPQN
# Variants of: B1
# Conditions: with SF3B1, O75533-1
# Sequence of SF3B1, O75533-1 (O75533 whole entry): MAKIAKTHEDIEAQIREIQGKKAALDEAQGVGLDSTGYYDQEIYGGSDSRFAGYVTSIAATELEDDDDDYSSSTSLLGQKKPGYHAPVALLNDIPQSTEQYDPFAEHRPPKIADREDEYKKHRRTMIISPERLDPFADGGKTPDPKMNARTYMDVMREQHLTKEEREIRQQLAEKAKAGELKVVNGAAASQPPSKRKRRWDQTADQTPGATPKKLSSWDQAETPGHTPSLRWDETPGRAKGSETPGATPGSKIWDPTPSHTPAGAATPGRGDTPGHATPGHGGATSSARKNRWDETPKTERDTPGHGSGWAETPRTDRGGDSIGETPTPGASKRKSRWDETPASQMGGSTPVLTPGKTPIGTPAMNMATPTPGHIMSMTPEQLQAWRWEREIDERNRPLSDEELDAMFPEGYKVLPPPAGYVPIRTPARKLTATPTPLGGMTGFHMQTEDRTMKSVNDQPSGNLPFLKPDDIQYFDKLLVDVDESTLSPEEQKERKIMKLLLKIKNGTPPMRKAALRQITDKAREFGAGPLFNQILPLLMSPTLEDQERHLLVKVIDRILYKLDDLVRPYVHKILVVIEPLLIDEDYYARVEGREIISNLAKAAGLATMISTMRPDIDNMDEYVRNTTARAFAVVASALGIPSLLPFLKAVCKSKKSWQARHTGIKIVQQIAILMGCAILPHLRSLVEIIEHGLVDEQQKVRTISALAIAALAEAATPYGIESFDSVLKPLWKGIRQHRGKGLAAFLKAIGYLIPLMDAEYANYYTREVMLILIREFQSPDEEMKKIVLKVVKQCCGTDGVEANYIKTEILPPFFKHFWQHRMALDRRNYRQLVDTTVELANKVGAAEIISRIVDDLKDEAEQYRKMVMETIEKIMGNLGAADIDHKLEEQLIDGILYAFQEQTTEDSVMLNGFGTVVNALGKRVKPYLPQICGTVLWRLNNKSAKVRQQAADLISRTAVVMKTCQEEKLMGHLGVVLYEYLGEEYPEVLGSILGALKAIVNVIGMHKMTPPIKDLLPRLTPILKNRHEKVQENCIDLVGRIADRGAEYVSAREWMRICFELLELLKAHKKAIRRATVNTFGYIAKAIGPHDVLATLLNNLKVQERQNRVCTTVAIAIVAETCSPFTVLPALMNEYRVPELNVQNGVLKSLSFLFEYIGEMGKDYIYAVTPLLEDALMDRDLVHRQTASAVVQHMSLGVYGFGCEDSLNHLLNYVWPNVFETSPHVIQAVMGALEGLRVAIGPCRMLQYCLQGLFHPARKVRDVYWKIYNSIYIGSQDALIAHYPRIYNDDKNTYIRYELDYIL
row,Variant,effect of a mutation on the interaction
1,E329Q,decreasing interaction
2,Y376A,disrupting interaction
3,R375A,disrupting interaction

# The next lines start with the values.
row,effect of a mutation on the interaction,Variant
1,disrupting interaction,F377A
2,disrupting interaction strength,D319A;E320A;D321A
3,disrupting interaction,D319K

# Variants of: B1
# Conditions: with U2AF2, P26368
# Sequence of U2AF2, P26368 (P26368 whole entry): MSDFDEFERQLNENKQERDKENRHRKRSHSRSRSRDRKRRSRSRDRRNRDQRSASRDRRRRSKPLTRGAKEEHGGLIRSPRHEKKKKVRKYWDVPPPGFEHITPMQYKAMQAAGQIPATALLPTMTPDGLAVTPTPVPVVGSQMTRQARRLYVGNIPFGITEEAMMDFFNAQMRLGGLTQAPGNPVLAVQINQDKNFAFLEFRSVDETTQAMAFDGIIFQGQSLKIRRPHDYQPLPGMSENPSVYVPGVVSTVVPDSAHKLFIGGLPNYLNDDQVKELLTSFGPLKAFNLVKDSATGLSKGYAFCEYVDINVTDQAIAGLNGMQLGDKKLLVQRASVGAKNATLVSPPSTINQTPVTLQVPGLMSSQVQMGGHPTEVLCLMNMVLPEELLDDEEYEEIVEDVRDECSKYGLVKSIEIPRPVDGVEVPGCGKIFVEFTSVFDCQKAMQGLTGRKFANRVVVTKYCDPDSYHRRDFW
row,Variant,effect of a mutation on the interaction
1,E329Q,disrupting interaction
2,R375A,disrupting interaction

# Further lines, results first:
row,effect of a mutation on the interaction,Variant
1,decreasing interaction,F377A
2,disrupting interaction strength,D319A;E320A;D321A
3,disrupting interaction,D319K
4,disrupting interaction,R375D

# Variants of: B2
# Conditions: with sf01_human SF1, Q15637
row,Variant,effect of a mutation on the interaction
1,F377A,decreasing interaction
2,Y376A,decreasing interaction
3,R375D,disrupting interaction

# Second part, the variant after the results:
row,effect of a mutation on the interaction,Variant
1,decreasing interaction,F377Y
2,decreasing interaction,R375A
3,disrupting interaction,D319K
4,disrupting interaction,D319A
